By Kd is commonly meant the equilibrium constant for the complex coming apart.

The target of assay [1] is Rac1 (Homo sapiens, UniProt P63000).
Assay [2] deals with Rac1 (Homo sapiens, UniProt P63000, Rac1 acetylated at K166).

B1: p67phox (protein)
chain: MSLVEAISLWNEGVLAADKKDWKGALDAFSAVQDPHSRICFNIGCMYTILKNMTEAEKAFTRSINRDKHLAVAYFQRGMLYYQTEKYDLAIKDLKEALIQLRGNQLIDYKILGLQFKLFACEVLYNIAFMYAKKEEWKKAEEQLALATSMKSEPRHSKIDKAMECVWKQKLYEPVVIPVGKLFRPNERQVAQLAKKDYLGKATVVASVVDQDSFSGFAPLQPQAAEPPPRPKTPEIFRALEGEAHRVLFGFVPETKEELQVMPGNIVFVLKKGNDNWATVMFNGQKGLVPCNYLEPVELRIHPQQQPQEESSPQSDIPAPPSSKAPGRPQLSPGQKQKEEPKEVKLSVPMPYTLKVHYKYTVVMKTQPGLPYSQVRDMVSKKLELRLEHTKLSYRPRDSNELVPLSEDSMKDAWGQVKNYCLTLWCENTVGDQGFPDEPKESEKADANNQTTEPQLKKGSQVEALFSYEATQPEDLEFQEGDIILVLSKVNEEWLEGECKGKVGIFPKVFVEDCATTDLESTRREV
With B1, the Kd with Rac1 [1] is 2340 nM; with Rac1 [2] it was 109 nM.
